Values of other authors in publication PMC3429939.

Target: galectin-1 CRD (Homo sapiens) (UniProt P09382)

galectin-1 CRD (from UniProt P09382)
Kd: 7 µM
